One assay has as its system OPM-2-Luc MM cells. Description: Systemic OPM-2-Luc multiple myeloma model. It counts as in vivo, mouse. As to the method:
Humanized anti-CXCR4 antibody h3G10.1.91.A58B was tested for its ability to increase survival and reduce tumor burden of NSG mice using a disseminated/systemic intravenous model of MM. The human MM cancer line OPM-2 was transduced with the luciferase gene (OPM-2-LUC) to allow for “in life” monitoring of tumor burden over time. Cells were cultured at 37° C. in a 5% CO2 incubator in RPMI 1640 media containing 10% fetal bovine serum with 0.5 μg/mL puromycin for luciferase expression selection. 4-6 week old NSG female mice were injected intravenously with OPM-2-Luc cells (5×10^6/animal).
On Day 8 post-cell implantation mice were randomized into three treatment groups (10 animals per group) based on total body bioluminescence intensity. Weekly subcutaneous (s.c.) antibody treatment at 10 mg/kg in a solution of sterile PBS was initiated and carried out for 5 weeks. Melphalan, one of the approved drugs for treatment of multiple myeloma patients, was dosed at 1 mg/kg, twice/week carried out for 3 weeks. Tumor burden was assessed using Xenogen IVIS 200 imaging system. Mice were imaged every 7 days in a ventral position and whole body bioluminescence was determined using Xenogen Living Image software. When mice began to show hind limb paralysis or reached other humane endpoints they were euthanized. Both tumor burden (by bioluminescence) and survival were evaluated as endpoints.

The target in assay [1] is T1, CXCR4 (CXCR4-expressing HPB-ALL cells) (Homo sapiens, UniProt P61073).
T1 construct: endogenous in cells; host or cells: HPB-ALL (human T cell leukemia)
Description: Flow cytometry binding of humanized 3G10 Fabs to HPB-ALL cells (Example 2). The conditions noted are these: for MFI 0.25 μg/ml: Fab 0.25 μg/ml; for MFI 2.5 μg/ml: Fab 2.5 μg/ml. How it is done: 150,000 cells were incubated with various h3G10 Fabs at either 2.5 or 0.25 μg/mL in 100 uL binding buffer (PBS+0.5% BSA), followed by incubation with APC-conjugated goat anti-human Fab-specific secondary antibody from R&D systems.
(A flow cytometer gives signals particle by particle.)

Assay [2] concerns the target T2, human CXCR4-enriched lipoparticles (Homo sapiens, UniProt P61073).
T2 construct: purchased Integral Molecular, Philadelphia Pa; LEV101
Description: Biosensor affinity measurement of Fabs on CXCR4-enriched lipoparticles. It counts as binding. To be noted: Fab; kinetic titration. How it is done: One way of determining binding affinity of antibodies to CXCR4 is by measuring binding affinity of monofunctional Fab fragments of the antibody. To obtain monofunctional Fab fragments, an antibody (for example, IgG) can be cleaved with papain or expressed recombinantly. […] Biotinylated WGA can be coated on the SA chip to facilitate capturing Lipoparticles containing CXCR4 proteins. […] J. Mol. Recognit. 12, 279-284 (1999).
The concentrations of the Fab proteins are determined by ELISA and/or SDS-PAGE electrophoresis using a Fab of known concentration (as determined by amino acid analysis) as a standard. Kinetic association rates (kon) and dissociation rates (koff) are obtained simultaneously by fitting the data globally to a 1:1 Langmuir binding model (Karlsson, R. Roos, H. Fagerstam, L. Petersson, B. (1994). Methods Enzymology 6. 99-110) using the BIAevaluation program. Equilibrium dissociation constant (KD) values are calculated as koff/kon.
The binding affinity of each Fab was determined using human CXCR4-enriched lipoparticles (LEV101, Integral Molecular, Philadelphia Pa.). Biotinylated WGA (Sigma Aldrich, St. Louis Mo.)) can be coated on the SA chip to facilitate capturing lipoparticles containing CXCR4 proteins. […] J. Mol. Recognit. 12, 279-284 (1999).

Where [3] appears, read: NSG mice, OPM-2-Luc i.v., antibody 10 mg/kg s.c. weekly for 5 weeks, Melphalan 1 mg/kg twice/week for 3 weeks.
Where [4] appears, read: antibody 10 mg/kg s.c. weekly 5 weeks, Melphalan 1 mg/kg twice/week 3 weeks, isotype control 33.5 days.

Numbering of substitutions follows the chain as printed. In names and notes the source's numbering stands.

T2 sequence (P61073 whole entry): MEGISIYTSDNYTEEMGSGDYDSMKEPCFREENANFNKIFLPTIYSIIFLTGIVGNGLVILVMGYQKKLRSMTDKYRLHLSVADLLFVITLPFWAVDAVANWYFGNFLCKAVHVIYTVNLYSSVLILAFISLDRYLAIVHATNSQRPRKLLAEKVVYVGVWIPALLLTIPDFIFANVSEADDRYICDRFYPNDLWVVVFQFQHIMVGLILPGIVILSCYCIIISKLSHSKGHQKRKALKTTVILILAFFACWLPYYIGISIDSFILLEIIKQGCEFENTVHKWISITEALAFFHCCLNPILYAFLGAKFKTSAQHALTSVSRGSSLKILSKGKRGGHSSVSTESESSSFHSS
T1 sequence (P61073 whole entry): as above

With `N[C@@H](Cc1ccc(N(CCCl)CCCl)cc1)C(=O)O` [Melphalan, reference compound], the “median survival” value in the assay with OPM-2-Luc MM cells (setting [3]) and in the assay on OPM-2-Luc MM cells (setting [4]) was 36 days each time.

B1: h3G10.1.91.A58B: humanized anti-CXCR4 antibody; VH h3G10.1.91 SEQ ID NO:33, VL h3G10.A58B SEQ ID NO:73 (antibody, V domains shown)
VH: EVQLVESGGGLVQPGGSLRLSCAASGFTFSDYYMSWVRQAPGKGLEWVGFIRHKANFETTEYSTSVKGRFTISRDDSKNSLYLQMNSLKTEDTAVYYCARDLPGFAYWGQGTLVTVSS
VL: DIVMTQSPDSLAVSLGERATINCKSSQSLFNSHTRKNYLAWYQQKPGQPPKLLIYWASARGSGVPDRFSGSGSGTDFTLTISSLQAEDVAVYYCKQSFNLRTFGGGTKVEIK
With B1, the “tumor growth (bioluminescence) compared to isotype control antibody” value in the assay with OPM-2-Luc MM cells (10 mg/kg s.c. weekly for 5 weeks, p<0.0001 on Day 30) is recorded as “significantly inhibited tumor growth”. Further, the “median survival” value in the assay with OPM-2-Luc MM cells (setting [3]) is on record as “Undefined”; with OPM-2-Luc MM cells (setting [4]), “undefined”.

B2: h3G10.B44 VH/h3G10.2.72 VL: Fab; VH SEQ ID NO:25, VL SEQ ID NO:49 (antibody, V domains shown)
VH: B1 VH with G49S, E58Y, D76N, S80T, K89R, T90A, R100K
VL: B1 VL with H33R, G61E, N99R
modifications: Fab
Regarding B2, in assay [1], the “MFI 0.25 μg/ml” value is given as 4513 and the “MFI 2.5 μg/ml” value worked out at 8908.

B3: h3G10.1.91 VH/h3G10.2.72 VL: Fab; VH SEQ ID NO:33, VL SEQ ID NO:49 (antibody, V domains shown)
VH: B1 VH
VL: B1 VL with H33R, G61E, N99R
modifications: Fab
As for B3, in assay [2], the “Ka (1/MS)” value is given as 1.50E+06 1/MS and the “Kd” value worked out at 0.00049 s⁻¹.

B4: h3G10.B44 VH/h3G10.B12 VL: Fab; VH SEQ ID NO:25, VL B12 (probably B12A, SEQ ID NO:61) (antibody, V domains shown)
VH: B1 VH with G49S, E58Y, D76N, S80T, K89R, T90A, R100K
VL: B1 VL with H33R, A40L, G61E, N99R
Turning to B4, in assay [1], the “MFI 0.25 μg/ml” value stood at 2094 and the “MFI 2.5 μg/ml” value stood at 8127.

B5: h3G10.B44 VH/h3G10.A11 VL: Fab; VH SEQ ID NO:25, VL A11 (probably A11A, SEQ ID NO:51) (antibody, V domains shown)
VH: B1 VH with G49S, E58Y, D76N, S80T, K89R, T90A, R100K
VL: B1 VL with S26A, H33R, G61E, N99R
modifications: Fab
Regarding B5, in assay [1], the “MFI 0.25 μg/ml” value was 3792 and the “MFI 2.5 μg/ml” value worked out at 8306.

B6: h3G10.A57 VH/h3G10.A11 VL: Fab; VH SEQ ID NO:23, VL A11 (probably A11A, SEQ ID NO:51) (antibody, V domains shown)
VH: B1 VH with E58Y
VL: B1 VL with S26A, H33R, G61E, N99R
modifications: Fab
Consider B6, for which, in assay [1], the “MFI 0.25 μg/ml” value is on record as 1251 and the “MFI 2.5 μg/ml” value was found to be 4521.

B7: h3G10.2.37 VH/h3G10.A58B VL: Fab; VH SEQ ID NO:35, VL SEQ ID NO:73 (antibody, V domains shown)
VH: B1 VH with E58Y, T60R
VL: B1 VL
modifications: Fab
Consider B7, for which, in assay [2], the “Ka (1/MS)” value is 7.97E+05 1/MS and the “Kd” value is 0.000449 s⁻¹.

B8: h3G10.2.37 VH/h3G10.2.72 VL: Fab; VH SEQ ID NO:35, VL SEQ ID NO:49 (antibody, V domains shown)
VH: B1 VH with E58Y, T60R
VL: B1 VL with H33R, G61E, N99R
modifications: Fab
For the molecule B8, in assay [2], the “Ka (1/MS)” value was 2.30E+06 1/MS and the “Kd” value was 0.0008 s⁻¹.

B9: h3G10.1.91 VH/h3G10.A58A VL: Fab; VH SEQ ID NO:33, VL SEQ ID NO:57 (antibody, V domains shown)
VH: B1 VH
VL: B1 VL with N99R
modifications: Fab
Consider B9, for which, in assay [2], the “Ka (1/MS)” value is recorded as 9.08E+05 1/MS and the “Kd” value was found to be 0.000341 s⁻¹.

B10: h3G10.A57 VH/h3G10 VL: Fab; VH SEQ ID NO:23, VL SEQ ID NO:47 (antibody, V domains shown)
VH: B1 VH with E58Y
VL: B1 VL with H33R, G61E
modifications: Fab
On to B10, for which, in assay [2], the “Ka (1/MS)” value is recorded as 1.17E+06 1/MS and the “Kd” value worked out at 0.00143 s⁻¹.

B11: h3G10.A57 VH/h3G10.A58A VL: Fab; VH SEQ ID NO:23, VL SEQ ID NO:57 (antibody, V domains shown)
VH: B1 VH with E58Y
VL: B1 VL with N99R
modifications: Fab
On to B11, for which, in assay [2], the “Ka (1/MS)” value is 1.60E+06 1/MS and the “Kd” value was 0.00063 s⁻¹.

B12: h3G10.2.37 VH/h3G10.A58A VL: Fab; VH SEQ ID NO:35, VL SEQ ID NO:57 (antibody, V domains shown)
VH: B1 VH with E58Y, T60R
VL: B1 VL with N99R
modifications: Fab
For the molecule B12, in assay [2], the “Ka (1/MS)” value is 1.29E+06 1/MS and the “Kd” value was 0.000418 s⁻¹.

B13: h3G10.A57 VH/h3G10.2.72 VL: Fab; VH SEQ ID NO:23, VL SEQ ID NO:49 (antibody, V domains shown)
VH: B1 VH with E58Y
VL: B1 VL with H33R, G61E, N99R
modifications: Fab
In the case of B13, in assay [2], the “Ka (1/MS)” value is given as 1.10E+06 1/MS and the “Kd” value was 0.0013 s⁻¹.

B14: h3G10.A57 VH/h3G10.B12 VL: Fab; VH SEQ ID NO:23, VL B12 (probably B12A, SEQ ID NO:61) (antibody, V domains shown)
VH: B1 VH with E58Y
VL: B1 VL with H33R, A40L, G61E, N99R
modifications: Fab
Take B14: in assay [1], the “MFI 0.25 μg/ml” value was determined as 2921 and the “MFI 2.5 μg/ml” value was 6830.

B15: h3G10.1.91 VH/h3G10.A58B VL: Fab; VH SEQ ID NO:33, VL SEQ ID NO:73 (antibody, V domains shown)
VH: B1 VH
VL: B1 VL
modifications: Fab
Regarding B15, in assay [2], the “Ka (1/MS)” value is on record as 8.03E+05 1/MS and the “Kd” value stood at 0.000286 s⁻¹.

B16: h3G10 VH/h3G10 VL: Fab; VH SEQ ID NO:21, VL SEQ ID NO:47 (antibody, V domains shown)
VH: B1 VH with F57G, E58Y
VL: B1 VL with H33R, G61E
modifications: Fab
Turning to B16, in assay [2], the “Ka (1/MS)” value is recorded as 1.60E+06 1/MS and the “Kd” value was 0.003 s⁻¹.

B17: h3G10.A57 VH/h3G10.A58B VL: Fab; VH SEQ ID NO:23, VL SEQ ID NO:73 (antibody, V domains shown)
VH: B1 VH with E58Y
VL: B1 VL
modifications: Fab
Regarding B17, in assay [2], the “Ka (1/MS)” value is 6.88E+05 1/MS and the “Kd” value was 0.000515 s⁻¹.

(Values after patent US10927178B2, “Anti-CXCR4 antibodies and antibody-drug conjugates” (PFIZER INC., priority 2013, dated 2021).)
